Columns and labels:
Experiment in all cases: SPR; bivalent fitting model
[1] = target: HAdV-B35 capsid (human adenovirus type 35, species B, replication-defective vector particle) (human adenovirus type 35 (species B))
[2] = target: HAdV-D26 capsid (human adenovirus type 26, species D, replication-defective vector particle) (human adenovirus type 26 (species D))
[3] = target: HAdV-C5 capsid (human adenovirus type 5, species C, replication-defective vector particle) (human adenovirus type 5 (species C), UniProt P04133 1-952)
Sequence of HAdV-C5 capsid (human adenovirus type 5, species C, replication-defective vector particle) (P04133 whole entry, looked up): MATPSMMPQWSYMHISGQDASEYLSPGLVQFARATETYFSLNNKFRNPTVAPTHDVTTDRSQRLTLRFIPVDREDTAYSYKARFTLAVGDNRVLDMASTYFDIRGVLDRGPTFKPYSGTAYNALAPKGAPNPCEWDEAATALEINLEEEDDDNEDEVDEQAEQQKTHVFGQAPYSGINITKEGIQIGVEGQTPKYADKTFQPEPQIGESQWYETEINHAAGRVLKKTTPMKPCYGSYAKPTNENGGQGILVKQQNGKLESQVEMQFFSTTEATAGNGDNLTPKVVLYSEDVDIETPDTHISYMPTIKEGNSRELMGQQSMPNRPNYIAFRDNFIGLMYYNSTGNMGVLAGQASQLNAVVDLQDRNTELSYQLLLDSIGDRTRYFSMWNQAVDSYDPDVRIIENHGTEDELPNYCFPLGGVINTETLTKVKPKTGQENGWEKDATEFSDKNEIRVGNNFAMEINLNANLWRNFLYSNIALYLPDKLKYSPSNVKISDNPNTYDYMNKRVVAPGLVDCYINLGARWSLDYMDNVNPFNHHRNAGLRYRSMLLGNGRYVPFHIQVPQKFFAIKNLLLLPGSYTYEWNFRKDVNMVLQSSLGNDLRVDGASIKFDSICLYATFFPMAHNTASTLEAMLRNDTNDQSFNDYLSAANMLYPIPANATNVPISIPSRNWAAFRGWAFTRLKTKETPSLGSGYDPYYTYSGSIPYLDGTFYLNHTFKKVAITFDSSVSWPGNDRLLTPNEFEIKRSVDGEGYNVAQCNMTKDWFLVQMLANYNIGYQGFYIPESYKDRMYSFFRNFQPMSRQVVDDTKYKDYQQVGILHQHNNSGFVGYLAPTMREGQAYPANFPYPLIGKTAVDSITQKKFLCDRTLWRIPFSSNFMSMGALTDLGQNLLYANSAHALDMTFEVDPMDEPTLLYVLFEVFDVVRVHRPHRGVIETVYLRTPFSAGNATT

B1: human lactoferrin (natural protein)
chain: GRRRSVQWCAVSQPEATKCFQWQRNMRKVRGPPVSCIKRDSPIQCIQAIAENRADAVTLDGGFIYEAGLAPYKLRPVAAEVYGTERQPRTHYYAVAVVKKGGSFQLNELQGLKSCHTGLRRTAGWNVPIGTLRPFLNWTGPPEPIEAAVARFFSASCVPGADKGQFPNLCRLCAGTGENKCAFSSQEPYFSYSGAFKCLRDGAGDVAFIRESTVFEDLSDEAERDEYELLCPDNTRKPVDKFKDCHLARVPSHAVVARSVNGKEDAIWNLLRQAQEKFGKDKSPKFQLFGSPSGQKDLLFKDSAIGFSRVPPRIDSGLYLGSGYFTAIQNLRKSEEEVAARRARVVWCAVGEQELRKCNQWSGLSEGSVTCSSASTTEDCIALVLKGEADAMSLDGGYVYTAGKCGLVPVLAENYKSQQSSDPDPNCVDRPVEGYLAVAVVRRSDTSLTWNSVKGKKSCHTAVDRTAGWNIPMGLLFNQTGSCKFDEYFSQSCAPGSDPRSNLCALCIGDEQGENKCVPNSNERYYGYTGAFRCLAENAGDVAFVKDVTVLQNTDGNNNEAWAKDLKLADFALLCLDGKRKPVTEARSCHLAMAPNHAVVSRMDKVERLKQVLLHQQAKFGRNGSDCPDKFCLFQSETKNLLFNDNTECLARLHGKTTYEKYLGPQYVAGITNLKKCSTSPLLEACEFLRK
[1]
  Kd: 54 µM
[2]
  Kd: 2.55 µM
[3]
  Kd: 0.8 µM

From paper doi:10.1101/2020.06.03.131664 (2020)
